According to publication PMC9280360:
Where “and” joins values, the source holds several entries; their conditions need not be identical. Equal values may be shown once.

B1: Flag-tagged mutant RalA (RALA c.G482A, p.Arg161Gln) (natural protein)
chain: MAANKPKGQNSLALHKVIMVGSGGVGKSALTLQFMYDEFVEDYEPTKADSYRKKVVLDGEEVQIDILDTAGQEDYAAIRDNYFRSGEGFLCVFSITEMESFAATADFREQILRVKEDENVPFLLVGNKSDLEDKRQVSVEEAKNRAEQWNVNYVETSAKTQANVDKVFFDLMREIRARKMEDSKEKNGKKKRKSLAKRIRERCCIL
B2: Flag-tagged wild-type RalA (RALA, NM_005402) (natural protein)
chain: MAANKPKGQNSLALHKVIMVGSGGVGKSALTLQFMYDEFVEDYEPTKADSYRKKVVLDGEEVQIDILDTAGQEDYAAIRDNYFRSGEGFLCVFSITEMESFAATADFREQILRVKEDENVPFLLVGNKSDLEDKRQVSVEEAKNRAEQWNVNYVETSAKTRANVDKVFFDLMREIRARKMEDSKEKNGKKKRKSLAKRIRERCCIL

Target: proprietary Ral effector protein (Ral-BP binding plate of the RalA G-LISA Activation Assay Kit)
Experiment: ELISA; RalA G-LISA Activation Assay Kit; purified RalA incubated in the presence or absence of 15 uM GTP for 1.5 h at 25 C, then 50 ng of the RalA/GTP mixture applied to the Ral-BP binding plate (effector immobilised); n = 3

Binder	downstream effector binding (G-LISA signal)
B1	3.24 and 3.33
B2	1.74
